Legend:
[1] = molecular target: KEAP1 (wild-type full-length), His-tagged (human) (UniProt Q14145); experiment: AlphaScreen; 76.8 nM FLAG-NRF2, 150 nM His-KEAP1; Rep 1; control for I28V
[2] = molecular target: KEAP1 (wild-type full-length), His-tagged (human) (UniProt Q14145); experiment: AlphaScreen; FLAG-NRF2 wt isoform 1 19.2 nM, His-KEAP1 150 nM; Rep 3; positive control for I86V
[3] = molecular target: KEAP1 (wild-type full-length), His-tagged (human) (UniProt Q14145); experiment: AlphaScreen; FLAG-NRF2 wt isoform 1 9.6 nM, His-KEAP1 150 nM; Rep 2; positive control for I86V
[4] = molecular target: KEAP1 (wild-type full-length), His-tagged (human) (UniProt Q14145); experiment: AlphaScreen; 307.2 nM FLAG-NRF2, 150 nM His-KEAP1; Rep 2; control for I86V
[5] = molecular target: KEAP1 (wild-type full-length), His-tagged (human) (UniProt Q14145); experiment: AlphaScreen; 614.4 nM FLAG-NRF2, 150 nM His-KEAP1; signal against NRF2 only; control for I28V
[6] = molecular target: KEAP1 (wild-type full-length), His-tagged (human) (UniProt Q14145); experiment: AlphaScreen; FLAG-NRF2 wt isoform 1 9.6 nM, His-KEAP1 150 nM; Repeat 2; positive control for Q75R
[7] = molecular target: KEAP1 (wild-type full-length), His-tagged (human) (UniProt Q14145); experiment: AlphaScreen; 4.8 nM FLAG-NRF2, 150 nM His-KEAP1; Rep 3; control for I86V
[8] = molecular target: KEAP1 (wild-type full-length), His-tagged (human) (UniProt Q14145); experiment: AlphaScreen; NRF2 wt isoform 1 9.6 nM, KEAP1 150 nM; signal against NRF2-only control; control for Q75R
[9] = molecular target: KEAP1 (wild-type full-length), His-tagged (human) (UniProt Q14145); experiment: AlphaScreen; FLAG-NRF2 I86V 19.2 nM, His-KEAP1 150 nM; Rep 2

Chain of KEAP1 (wild-type full-length), His-tagged (human) (Q14145 2-624 limits assumed): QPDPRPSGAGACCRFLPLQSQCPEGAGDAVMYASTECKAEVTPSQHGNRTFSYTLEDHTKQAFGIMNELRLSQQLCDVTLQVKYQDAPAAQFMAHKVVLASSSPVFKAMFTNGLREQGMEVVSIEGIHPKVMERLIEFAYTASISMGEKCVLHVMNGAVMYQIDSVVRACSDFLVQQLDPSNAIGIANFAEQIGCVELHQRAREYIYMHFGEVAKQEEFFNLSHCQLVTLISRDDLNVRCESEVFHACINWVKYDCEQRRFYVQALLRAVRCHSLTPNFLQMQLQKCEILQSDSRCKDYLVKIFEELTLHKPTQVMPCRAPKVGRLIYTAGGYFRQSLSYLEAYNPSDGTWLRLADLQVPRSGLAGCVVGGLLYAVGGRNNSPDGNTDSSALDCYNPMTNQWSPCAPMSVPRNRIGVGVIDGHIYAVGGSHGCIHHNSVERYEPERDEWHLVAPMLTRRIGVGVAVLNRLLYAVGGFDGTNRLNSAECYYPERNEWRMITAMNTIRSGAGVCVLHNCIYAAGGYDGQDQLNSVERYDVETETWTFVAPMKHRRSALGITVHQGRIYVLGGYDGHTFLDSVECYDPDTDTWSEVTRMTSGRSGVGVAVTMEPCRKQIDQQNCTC

Binder	A-counts [1] [A-counts]	A-counts (NRF2 plus KEAP1) [2] [A-counts]	A-counts (NRF2 plus KEAP1) [3] [A-counts]	A-counts [4] [A-counts]	S/N [5]	A-counts (NRF2 plus KEAP1) [6] [A-counts]	A-counts [7] [A-counts]	S/N [8]	A-counts (NRF2 plus KEAP1) [9] [A-counts]
NRF2 isoform 1 (wild-type full-length), FLAG-tagged (protein) MMDLELPPPGLPSQQDMDLIDILWRQDIDLGVSREVFDFSQRRKEYELEKQKKLEKERQEQLQKEQEKAFFAQLQLDEETGEFLPIQPAQHIQSETSGSANYSQVAHIPKSDALYFDDCMQLLAQTFPFVDDNEVSSATFQSLVPDIPGHIESPVFIATNQAQSPETSVAQVAPVDLDGMQQDIEQVWEELLSIPELQCLNIENDKLVETTMVPSPEAKLTEVDNYHFYSSIPSMEKEVGNCSPHFLNAFEDSFSSILSTEDPNQLTVNSLNSDATVNTDFGDEFYSAFIAEPSISNSMPSPATLSHSLSELLNGPIDVSDLSLCKAFNQNHPESTAEFNDSDSGISLNTSPSVASPEHSVESSSYGDTLLGLSDSEVEELDSAPGSVKQNGPKTPVHSSGDMVQPLSPSQGQSTHVHDAQCENTPEKELPVSPGHRKTPFTKDKHSSRLEAHLTRDELRAKALHIPFPVEKIINLPVVDFNEMMSKEQFNEAQLALIRDIRRRGKNKVAAQNCRKRKLENIVELEQDLDHLKDEKEKLLKEKGENDKSLHLLKKQLSTLYLEVFSMLRDEDGKPYSPSEYSLQQTRDGNVFLVPKSKKPDVKKN	2000	3040	2720	2790	1	900	1860	3	–
NRF2 isoform 1 (I86V full-length), FLAG-tagged (protein) MMDLELPPPGLPSQQDMDLIDILWRQDIDLGVSREVFDFSQRRKEYELEKQKKLEKERQEQLQKEQEKAFFAQLQLDEETGEFLPVQPAQHIQSETSGSANYSQVAHIPKSDALYFDDCMQLLAQTFPFVDDNEVSSATFQSLVPDIPGHIESPVFIATNQAQSPETSVAQVAPVDLDGMQQDIEQVWEELLSIPELQCLNIENDKLVETTMVPSPEAKLTEVDNYHFYSSIPSMEKEVGNCSPHFLNAFEDSFSSILSTEDPNQLTVNSLNSDATVNTDFGDEFYSAFIAEPSISNSMPSPATLSHSLSELLNGPIDVSDLSLCKAFNQNHPESTAEFNDSDSGISLNTSPSVASPEHSVESSSYGDTLLGLSDSEVEELDSAPGSVKQNGPKTPVHSSGDMVQPLSPSQGQSTHVHDAQCENTPEKELPVSPGHRKTPFTKDKHSSRLEAHLTRDELRAKALHIPFPVEKIINLPVVDFNEMMSKEQFNEAQLALIRDIRRRGKNKVAAQNCRKRKLENIVELEQDLDHLKDEKEKLLKEKGENDKSLHLLKKQLSTLYLEVFSMLRDEDGKPYSPSEYSLQQTRDGNVFLVPKSKKPDVKKN	–	–	–	–	–	–	–	–	3160

— US20250352667A1
